US6613322B2, “Method for treating a subject suffering from conditions associated with an extracellular zinc sphingomyelinase” (The Trustees of Columbia University in the City of New York, priority 1997, dated 2003)

Columns and labels:
[1] = test system: S-SMase secretion by HUVECs; experiment: Cytokine regulation of S-SMase secretion by HUVECs (SMase activity in conditioned media); type: cell-based, human; settings: 18 h, IL-1β 5 ng/ml, interferon-γ 1000 units/ml
Protocol: The cells were then washed 3 times with PBS and incubated for 24 h in 1 ml fresh serum-free media containing 0.2%6 BSA. This 24-h conditioned medium was collected for SMase assays.
Harvesting of Cells and Conditioned Media—Following the incubations described above and in the figure legends, cells were placed on ice and the serum-free conditioned media was removed. The cells were washed two times with ice-cold 0.25 M sucrose and scraped into 0.3 ml and 3.0 ml of this sucrose solution per 35-mm and 100-mm dishes, respectively. Unless indicated otherwise, the scraped cells were disrupted by sonication on ice using three 5-second bursts (Branson 450 Sonifier), and the cellular homogenates were assayed for total protein by the method of Lowry et al. (22) and for SMase activity as described below. The conditioned media were spun at 800×g for 5 min to pellet any contaminating cells and concentrated six-fold using a Centriprep 30 (Amicon; Beverly, Mass.) concentrator (molecular weight cut off=30,000).
Typically, our assay reactions contained approximately 20 μg of cellular homogenate protein and a volume of conditioned media derived from a quantity of cells equivalent to approximately 50 μg of cellular protein.

L-SMase of HUVECs = experiment: Cytokine regulation of L-SMase activity in HUVEC cell homogenates; type: cell-based, human; settings: cytokine-treated endothelial cells
Protocol: FIGS. 23A-B. Cytokine regulation of S- and L-SMase of HUVECs. […] Conditioned media (FIG. 23A) and cell homogenates (FIG. 23B) from these cells were then assayed for SMase activity in the presence or absence of 0.1 mM ZnCl2, respectively.
Cells—Primary cultures of HUVEC were obtained from fresh umbilical cords and maintained in cell culture as previously described (31). Human coronary artery endothelial cells from a donor were purchased from Clonetics Corp. (San Diego, Calif.; cat. # CC-2585, Strain #3033). The cells were grown in endothelial basal media (EBM) (Clonetics) supplemented with 10% HI-FES; 10 μg endothelial cell growth supplement/ml (Sigma; cat. # E0760) and 50 μg gentamicin/ml. Primary cultures of bovine aortic endothelial, cells were established and subcultured as described previously (32). […]

B1: interferon-γ: human recombinant interferon-γ (protein, UniProt P01579 24-161, looked up)
Interferon gamma: QDPYVKEAENLKKYFNAGHSDVADNGTLFLGILKNWKEESDRKIMQSQIVSFYFKLFKNFKDDQSIQKSVETIKEDMNVKFFNSNKKKRDDFEKLTNYSVTDLNVQRKAIHELIQVMAELSPAAKTGKRKRSQMLFRG
For B1, the “increase of S-SMase activity / secretion (conditioned media)” value [1] was ~3 fold and the “L-SMase (lysosomal SMase) activity” value (L-SMase of HUVECs) was “decreased”.
